Data on 10 molecules can be found in patent US20260217804A1 (BIOARCTIC, published 2026).

Where only a bound is given, the exact number is not on record here.

To fix the notation:
B2: H2L7 (antibody, human IgG1, kappa, V domains shown)
VH: EVQLVQSGAEVKKPGASVRLSCKASGYSFTGFTMNWVRQALGQGLEWMGLINPYNGVTTYNQKFKGRLTMTRDMSTRTVYMDLSSLRYEDTAVYYCTREGNWEGVYWGQGTLVTVSS
VL: EIVLTQSPLSLSVTLGQSASISCRSSQSLLDSNGKTYLHWFILRPGQSPRRLIYLVSILDSGVPDRFSGSGSGTDFTLKISRVEAEDVGVYYCVQGTHFPFTFGSGTKLEIKR
notes: Humanized IgG1/kappa, expressed in CHO cells; also called humanized Pyr12.2 variant H2L7; VH2/VL7
B3: H2L7-K12V/R71A (antibody, human IgG1, kappa)
heavy: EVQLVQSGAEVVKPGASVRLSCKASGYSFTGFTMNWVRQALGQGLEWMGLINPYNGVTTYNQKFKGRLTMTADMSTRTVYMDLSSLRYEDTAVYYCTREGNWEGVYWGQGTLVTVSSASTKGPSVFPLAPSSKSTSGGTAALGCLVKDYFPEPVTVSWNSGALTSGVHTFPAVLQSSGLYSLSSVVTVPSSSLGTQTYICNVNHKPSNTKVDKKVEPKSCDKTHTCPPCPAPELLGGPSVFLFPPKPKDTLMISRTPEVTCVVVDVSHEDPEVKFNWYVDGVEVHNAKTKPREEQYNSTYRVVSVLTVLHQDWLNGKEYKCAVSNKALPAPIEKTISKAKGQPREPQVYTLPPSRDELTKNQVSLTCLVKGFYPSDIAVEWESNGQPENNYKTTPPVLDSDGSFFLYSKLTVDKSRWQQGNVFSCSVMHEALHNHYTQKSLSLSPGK
light: EIVLTQSPLSLSVTLGQSASISCRSSQSLLDSNGKTYLHWFILRPGQSPRRLIYLVSILDSGVPDRFSGSGSGTDFTLKISRVEAEDVGVYYCVQGTHFPFTFGSGTKLEIKRTVAAPSVFIFPPSDEQLKSGTASVVCLLNNFYPREAKVQWKVDNALQSGNSQESVTEQDSKDSTYSLSSTLTLSKADYEKHKVYACEVTHQGLSSPVTKSFNRGEC
notes: Variant of H2L7 with changes in VH only
B4: H2L7-K12V/R83T (antibody, human IgG1, kappa, V domains shown)
VH: EVQLVQSGAEVVKPGASVRLSCKASGYSFTGFTMNWVRQALGQGLEWMGLINPYNGVTTYNQKFKGRLTMTRDMSTRTVYMDLSSLTYEDTAVYYCTREGNWEGVYWGQGTLVTVSS
VL: EIVLTQSPLSLSVTLGQSASISCRSSQSLLDSNGKTYLHWFILRPGQSPRRLIYLVSILDSGVPDRFSGSGSGTDFTLKISRVEAEDVGVYYCVQGTHFPFTFGSGTKLEIKR
notes: as for B3
B7: AβpE11-28 monomer (peptide, UniProt P05067 682-699, looked up)
peptide: EVHHQKLVFFAEDVGSNK
modifications: pyroglutamate (pE) at position 11, the N-terminus
notes: range 11-28; The range counts on Aβ numbering, not on APP
B10: H9L8 (antibody, human IgG1, kappa, V domains shown)
VH: QVQLVQSGPEVKKPGSSVKVSCKASGYSFTGFTMNWVRQTPGKGLEWIGLINPYNGVTTYNQKFKGRVTITADESTRTAYMELLSLTYEDTAVYYCTREGNWEGVYWGQGTPVTVSA
VL: EVVLTQSPLSISVTLGQSASISCRSSQSLLDSNGKTYLHWFILRPGQSPRRLIYLVSILDSGIPDRFSGSGSGTDFTLKISRVEAEDVGVYYCVQGTHFPFTFGGGTKLEIKR
notes: Humanized IgG1/kappa, expressed in CHO cells; also called humanized Pyr12.2 variant H9L8; VH9/VL8

The target of one assay is T1, AβpE11-40 monomer (UniProt P05067 682-711, pyroglutamate (pE) at position 11, the N-terminus).
T1 construct: range 11-40; The range counts on Aβ numbering, not on APP
T1 peptide (looked up): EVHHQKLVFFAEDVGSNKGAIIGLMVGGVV
The assay is described as follows: inhibition ELISA. As to the method:
(§1) The humanized antibodies were incubated at a fixed concentration (0.5 μg/ml) with titrating concentrations of the different Aβ antigens. […] The samples were incubated on the plate for 25 min without shaking followed by washing, incubation with detection antibody, another washing step and finally incubation with alkaline phosphatase substrate.

The next assay has as its target T2, Aβ1-40 monomer (UniProt P05067 672-711).
T2 construct: range 1-40
The assay is described as follows: inhibition ELISA. As to the method: as §1
On the technique in general: An ELISA detects its analyte on a solid surface through an enzyme-linked reagent.

The next assay concerns the target T3, Aβ2-42 monomer (UniProt P05067 673-713).
T3 construct: range 2-42; The range counts on Aβ numbering, not on APP
Nature of the assay: capture ELISA: plate coated with rabbit anti-Aβ42, peptide monomer captured, hybridoma supernatant, anti-mouse IgG-HRP, OD450 (Example 1).

For a further assay, the target named is T4, Aβ1-42 monomer (UniProt P05067 672-713).
T4 construct: range 1-42; The range counts on Aβ numbering, not on APP; also called monomeric Aβ1-42
The description is as above.

The next assay deals with T5, Aβ5-28 monomer (UniProt P05067 676-699).
T5 construct: range 5-28; The range counts on Aβ numbering, not on APP
The assay is described as follows: inhibition ELISA. As to the method:
as §1

For another assay, the target named is T6, Aβ1-28 monomer (UniProt P05067 672-699).
T6 construct: range 1-28; The range counts on Aβ numbering, not on APP
The assay is described as follows: inhibition ELISA. As for the experimental part:
as §1

The target of a further assay is T7, Aβ1-42 protofibrils (UniProt P05067 672-713).
T7 construct: range 1-42; Soluble aggregates of Aβ1-42; The range counts on Aβ numbering, not on APP
The assay is described as follows: inhibition ELISA. As for the experimental part:
as §1

For another assay, the target named is T8, Aβ3-28 monomer (UniProt P05067 674-699).
T8 construct: range 3-28; The range counts on Aβ numbering, not on APP
Nature of the assay: inhibition ELISA. As to the method:
as §1

The target of another assay is T9, AβpE3-28 monomer (UniProt P05067 674-699, pyroglutamate (pE) at position 3, the N-terminus).
T9 construct: range 3-28; The range counts on Aβ numbering, not on APP
The assay is described as follows: inhibition ELISA. As for the experimental part:
as §1

A further assay concerns the target T10, Aβ2-28 monomer (UniProt P05067 673-699).
T10 construct: range 2-28; The range counts on Aβ numbering, not on APP
The assay is described as follows: inhibition ELISA. As for the experimental part:
as §1

Another assay has as its target T11, Aβ4-28 monomer (UniProt P05067 675-699).
T11 construct: range 4-28; The range counts on Aβ numbering, not on APP
The assay is described as follows: inhibition ELISA. As for the experimental part:
as §1

The target of the assay “AβpE11-28 monomer” is B7. The assay is described as follows: inhibition ELISA. As for the experimental part:
as §1

A further assay concerns the target T12, AβpE3-40 monomer (UniProt P05067 674-711, pyroglutamate (pE) at position 3, the N-terminus).
T12 construct: range 3-40; also called monomeric AβpE3-40
Nature of the assay: SPR (Biacore 8K), antibody immobilised on CM5, monomer injected, 1:1 model. As to the method:
For the measurements, 5 μg/ml of […] antibody was immobilized on the chip. The monomer was then injected over the chip using a 2-fold dilution in five steps starting at 250 nM, using 2 min injection of every […] concentration and a 20 min dissociation time. Regeneration of the surface between cycles was done by injecting 30 μl 3 M MgCl₂. The binding data was fitted to a 1:1 interaction model.
In all SPR experiments, 1×HBS-EP+ (Cytiva, cat. no. BR100669) was used to dilute antibodies and target antigens. Experiments were performed at 25° C.
Affinity evaluation and Ko determination by surface plasmon resonance: Binding interactions between antigens and antibodies were evaluated by SPR using a Biacore 8K instrument (Cytiva) according to standard procedures.

The target in assay [1] is B2. The assay is described as follows: inhibition ELISA: antigen in solution titrated, antibody fixed (0.5 µg/ml), AβpE3-40 coat. As for the experimental part: as §1
The assay “H9L8” deals with B10. The description is as above. As for the experimental part: as §1
The assay “H2L7-K12V/R71A” addresses B3. Nature of the assay: inhibition ELISA as in Example 6: antigen in solution titrated, antibody fixed, AβpE3-40 coat. As to the method:
as §1

Assay [2] deals with B2. Described as above. As for the experimental part:
as §1

The assay “H2L7-K12V/R83T” has as its target B4. The assay is described as above. As to the method:
as §1

Sequence of H2L7-K12V/R71A (heavy, as listed by the source, chain 1 of 2, one chain of several): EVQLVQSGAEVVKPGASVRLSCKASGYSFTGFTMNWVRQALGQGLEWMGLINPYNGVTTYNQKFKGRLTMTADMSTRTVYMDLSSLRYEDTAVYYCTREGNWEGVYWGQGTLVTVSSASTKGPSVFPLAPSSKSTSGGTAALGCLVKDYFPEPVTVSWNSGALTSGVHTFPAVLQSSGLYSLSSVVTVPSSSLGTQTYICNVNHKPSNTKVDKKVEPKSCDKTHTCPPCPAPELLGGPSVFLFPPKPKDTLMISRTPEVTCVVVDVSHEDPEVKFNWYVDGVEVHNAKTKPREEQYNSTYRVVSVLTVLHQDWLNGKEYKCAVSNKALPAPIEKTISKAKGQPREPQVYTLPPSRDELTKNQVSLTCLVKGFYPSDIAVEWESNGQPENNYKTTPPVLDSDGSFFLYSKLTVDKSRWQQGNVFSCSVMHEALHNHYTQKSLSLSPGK

B1: Pyr12.2 (antibody, IgG2c, V domains shown)
VH: EVQLQQSGPELVKPGTSIKMSCKASGYSFTGFTMNWVKQSHGKNLEWIGLINPYNGVTTYNQKFKGKATITVDKSSRTAYMELLSLTYEDSAVYYCTREGNWEGVYWGQGTPVTVSA
VL: EVVLTQTPLTLSVTIGQSASISCKSSQSLLDSNGKTYLHWFLLRPGQSPKRLIYLVSILDSGVPDRFTGSGSGTDFTLKISRVEAEDLGIYYCVQGTHFPFTFGSGTKLEIKR
notes: also called recombinant antibody Pyr12.2; hybridoma clone Pyr12.2
Turning to B1, the binding result is on record as “no binding (tested: 5 µM)” with AβpE11-40 monomer, “no binding (tested: 5 µM)” with Aβ1-40 monomer, “no binding (tested: no concentration on the sheet)” in the assay with Aβ2-42 monomer and “no binding (tested: no concentration on the sheet)” with Aβ1-42 monomer.

On to B2, for which the binding result was “no binding (tested: 12500 nM)” with Aβ5-28 monomer; “no binding (tested: 12500 nM)” with Aβ1-28 monomer; “no binding (tested: 500 nM)” in the assay with Aβ1-42 protofibrils; “binds” with Aβ3-28 monomer; “binds” with AβpE3-28 monomer; “no binding (tested: 12.5 µM)” in the assay with Aβ1-40 monomer. Also, the binding result in the assay with Aβ2-28 monomer, with Aβ4-28 monomer and with AβpE11-28 monomer was “no binding (tested: 12500 nM)” throughout.

For B3, the binding result with Aβ1-42 protofibrils is listed as “no binding (tested: 132 nM)”; with Aβ3-28 monomer, “binds”; in the assay with AβpE3-28 monomer, “binds”; in the assay with Aβ1-40 monomer, “no binding (tested: 500 nM)”.

B4: the binding result in the assay with Aβ1-42 protofibrils is “no binding (tested: 132 nM)”; with Aβ3-28 monomer it was “binds”; with AβpE3-28 monomer it was “binds”; with Aβ1-40 monomer it was “no binding (tested: 500 nM)”.

B5: H2L7-R71A/R83T (antibody, human IgG1, kappa)
heavy: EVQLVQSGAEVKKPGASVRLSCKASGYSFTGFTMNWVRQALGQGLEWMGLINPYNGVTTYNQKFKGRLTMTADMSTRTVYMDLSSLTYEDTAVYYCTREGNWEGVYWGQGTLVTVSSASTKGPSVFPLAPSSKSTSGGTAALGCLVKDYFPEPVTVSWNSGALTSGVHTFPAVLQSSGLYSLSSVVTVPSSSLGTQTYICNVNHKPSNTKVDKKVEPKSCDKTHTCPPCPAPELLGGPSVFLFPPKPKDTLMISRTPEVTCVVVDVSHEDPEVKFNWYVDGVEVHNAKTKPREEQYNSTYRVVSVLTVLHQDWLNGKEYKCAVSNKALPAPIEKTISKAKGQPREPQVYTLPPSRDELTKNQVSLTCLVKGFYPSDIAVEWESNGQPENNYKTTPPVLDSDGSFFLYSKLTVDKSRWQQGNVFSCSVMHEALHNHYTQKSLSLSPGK
light: EIVLTQSPLSLSVTLGQSASISCRSSQSLLDSNGKTYLHWFILRPGQSPRRLIYLVSILDSGVPDRFSGSGSGTDFTLKISRVEAEDVGVYYCVQGTHFPFTFGSGTKLEIKRTVAAPSVFIFPPSDEQLKSGTASVVCLLNNFYPREAKVQWKVDNALQSGNSQESVTEQDSKDSTYSLSSTLTLSKADYEKHKVYACEVTHQGLSSPVTKSFNRGEC
notes: as for B3
One may read the Kd as the free concentration of one partner at which half of the binding sites on the other are occupied at equilibrium, for simple one-to-one binding. A higher Kd goes with a looser complex. As usually defined, the koff is the rate constant with which the complex falls apart. A low value points to a long-lived complex. What is called kon is the second-order rate constant of association. For the molecule B5, the binding result with Aβ1-42 protofibrils is reported as “no binding (tested: 132 nM)”. Besides, the binding result in the assay with Aβ1-40 monomer is on record as “no binding (tested: 500 nM)”. In the assay with AβpE3-40 monomer, this molecule registered a Kd of 0.00462 µM, a koff of 0.000225 s⁻¹ and a kon of 50100 M⁻¹ s⁻¹.

B6: H2L7-K12V/R71A/R83T (antibody, human IgG1, kappa)
heavy: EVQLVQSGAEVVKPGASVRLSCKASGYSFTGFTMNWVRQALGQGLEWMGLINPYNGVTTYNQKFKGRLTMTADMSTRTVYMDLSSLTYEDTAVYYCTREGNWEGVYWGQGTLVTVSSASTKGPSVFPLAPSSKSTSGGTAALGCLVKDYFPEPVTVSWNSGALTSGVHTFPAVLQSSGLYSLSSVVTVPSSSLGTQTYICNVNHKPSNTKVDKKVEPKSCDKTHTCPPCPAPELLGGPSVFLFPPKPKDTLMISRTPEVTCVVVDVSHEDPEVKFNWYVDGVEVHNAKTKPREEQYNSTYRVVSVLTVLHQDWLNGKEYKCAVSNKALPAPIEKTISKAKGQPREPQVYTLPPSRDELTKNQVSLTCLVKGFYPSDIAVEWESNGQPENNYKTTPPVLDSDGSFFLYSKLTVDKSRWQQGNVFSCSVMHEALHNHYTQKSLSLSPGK
light: EIVLTQSPLSLSVTLGQSASISCRSSQSLLDSNGKTYLHWFILRPGQSPRRLIYLVSILDSGVPDRFSGSGSGTDFTLKISRVEAEDVGVYYCVQGTHFPFTFGSGTKLEIKRTVAAPSVFIFPPSDEQLKSGTASVVCLLNNFYPREAKVQWKVDNALQSGNSQESVTEQDSKDSTYSLSSTLTLSKADYEKHKVYACEVTHQGLSSPVTKSFNRGEC
notes: as for B3
Turning to B6, the binding result with Aβ1-42 protofibrils is “no binding (tested: 132 nM)”; in the assay with Aβ1-40 monomer it was “no binding (tested: 500 nM)”.

For orientation: IC50 means the midpoint of a concentration-inhibition curve. Regarding B7, the IC50 in the assay with H2L7 [1], with H9L8, in the assay with H2L7-K12V/R71A, in the assay with H2L7 [2] and with H2L7-K12V/R83T was greater than 12.5 µM throughout.

B8: H2L7-R71A (antibody, human IgG1, kappa)
heavy: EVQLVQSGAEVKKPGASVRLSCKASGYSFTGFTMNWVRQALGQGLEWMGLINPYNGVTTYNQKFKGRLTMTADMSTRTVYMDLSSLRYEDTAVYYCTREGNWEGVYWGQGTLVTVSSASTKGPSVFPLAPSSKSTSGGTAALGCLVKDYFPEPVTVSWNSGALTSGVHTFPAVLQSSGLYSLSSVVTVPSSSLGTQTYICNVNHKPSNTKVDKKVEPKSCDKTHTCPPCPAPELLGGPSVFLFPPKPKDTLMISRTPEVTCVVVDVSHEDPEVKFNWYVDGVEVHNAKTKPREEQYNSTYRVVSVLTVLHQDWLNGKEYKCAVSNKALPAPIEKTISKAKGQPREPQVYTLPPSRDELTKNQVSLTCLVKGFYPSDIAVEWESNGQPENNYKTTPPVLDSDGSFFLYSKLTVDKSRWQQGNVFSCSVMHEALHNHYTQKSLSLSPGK
light: EIVLTQSPLSLSVTLGQSASISCRSSQSLLDSNGKTYLHWFILRPGQSPRRLIYLVSILDSGVPDRFSGSGSGTDFTLKISRVEAEDVGVYYCVQGTHFPFTFGSGTKLEIKRTVAAPSVFIFPPSDEQLKSGTASVVCLLNNFYPREAKVQWKVDNALQSGNSQESVTEQDSKDSTYSLSSTLTLSKADYEKHKVYACEVTHQGLSSPVTKSFNRGEC
notes: Variant of H2L7 with a change in VH only
In the case of B8, the binding result is listed as “no binding (tested: 132 nM)” with Aβ1-42 protofibrils and “no binding (tested: 500 nM)” in the assay with Aβ1-40 monomer.

B9: Pyr7.1 (antibody, IgG2c, V domains shown)
VH: KVQLQQSGPELVKPGTSIKMSCKTSGYSFTGYTLNWVKQSPGKNPEWIGLINPYNGITTYNPKFMGKATLTVDKSSSTAYMELLSLTSEDSAVYYCSREGNWEGVYWGQGTLVTVSA
VL: not shown
notes: also called recombinant antibody Pyr7.1; hybridoma clone Pyr7.1
With B9, the binding result is recorded as “no binding (tested: 5 µM)” with AβpE11-40 monomer, “no binding (tested: 5 µM)” in the assay with Aβ1-40 monomer, “no binding (tested: no concentration on the sheet)” with Aβ2-42 monomer and “no binding (tested: no concentration on the sheet)” in the assay with Aβ1-42 monomer.

As for B10, the binding result with Aβ5-28 monomer is given as “no binding (tested: 12.5 µM)”; with Aβ1-28 monomer, “no binding (tested: 12.5 µM)”; in the assay with Aβ1-42 protofibrils, “no binding (tested: 500 nM)”; with Aβ3-28 monomer, “binds”; with AβpE3-28 monomer, “binds”; with Aβ1-40 monomer it was “no binding (tested: 12.5 µM)”. The binding result in the assay with Aβ2-28 monomer, in the assay with Aβ4-28 monomer and with AβpE11-28 monomer was “no binding (tested: 12.5 µM)” in each case.
